Test results taken from article PMC3852654.

Experiments:
[1] = target: Rap2a (resistance-associated protein 2a, immunity protein of Ssp2), without N-terminal periplasmic targeting sequence (Serratia marcescens); assay: crystal structure; Rap2a alone, 13.5 mg/ml; reservoir 25% PEG 1000, 0.1 M MES pH 6.5; 1.9 A; four molecules in the asymmetric unit
[2] = target: Rap1a (resistance-associated protein 1a, immunity protein of Ssp1), without N-terminal periplasmic targeting sequence (Serratia marcescens); assay: SEC; Rap1a alone in solution (Supplementary Fig. S1)
[3] = target: Rap1a (resistance-associated protein 1a, immunity protein of Ssp1), without N-terminal periplasmic targeting sequence (Serratia marcescens); assay: crystal structure; Rap1a alone; reservoir 25% PEG 3350, 100 mM bis-tris pH 5.5; about 2.0 A; two molecules in the asymmetric unit

Row | Substance | stoichiometry N [1] | stoichiometry N [2] | stoichiometry N [3]
1 | Rap2a (resistance-associated protein 2a, immunity protein of Ssp2), without N-terminal periplasmic targeting sequence (natural protein) | 2 | – | –
2 | Rap1a (resistance-associated protein 1a, immunity protein of Ssp1), without N-terminal periplasmic targeting sequence (natural protein) | – | 2 | 2
